In PMC5700522:

molecular target: T1, PoxCxrA17-150 (Penicillium oxalicum HP7-1) (UniProt A0A2H4WV05); assay: EMSA; settings: 20 mM Tris-HCl pH 8.0, 50 mM KCl, 5% glycerol, 1 mM DTT, 0.1 mg/mL BSA; 40 ng FAM probe, 0-4.8 ug protein; 4% PAGE in TAE; temperature not stated
T1 sequence: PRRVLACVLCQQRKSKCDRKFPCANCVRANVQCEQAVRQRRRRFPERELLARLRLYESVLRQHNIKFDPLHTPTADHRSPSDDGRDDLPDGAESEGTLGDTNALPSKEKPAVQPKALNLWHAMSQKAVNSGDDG

binding, binds:
CGGCTTCCAAAGACCCCATATCGACGATCGGCGATTTGGGGAGGGACTAAAGTAGGAGGGAGAGGGAGGGAGCAGAGAGGGAGGGAGCAGAGAGAGAGGGAGAGAGGGAGAGCAAGGGTGAATAACAAGAAAGCGACGATGACAAGGTTGGTAAGATAAC (double strand) [PoxNsdD promoter (CxrA probe)]
GTGAAAGAGGTGCTTGTCGTGATCGCTTGCCATATGTTTCACTGTATGACTTGGGCACCGGAGCGGCACCGTGAATCAGGCTGGCCAAATCCATTGTCGGACTAGATGCTTCGTCCGTTGGGATCGTTGAATTGTGCGGAATCAGTGTCGTCGAGTGATACAATTGGGACGTGAGATTTAGTCACGACCGATAAGGTG (double strand) [PoxCxrB promoter (CxrA probe)]
TTAGGAGTGCTATAAGATGGCGACAGAAGTCGGCCGAGGAGGAAATTCTCGTTTCCATCCACCGAGTCTGCATACATTGGATTTCGAGTTGTCAAAATGAGATACGATTTGATTCTTGCCGCCGGCGCCACTCTGGCACTGGCCGTGCCCCAGGGCATCTCCAAGCGGGCCGGAGGCTTTGTCTGTAAGTTG (double strand) [POX01166/Cel5B promoter (CxrA probe)]
